Experimental data from patent US20170342168A1 (Hoffmann-La Roche, published 2017).

What follows are molecules tested against T1, human neonatal Fc-receptor (FcRn) (human, UniProt P55899 24-297; P61769 21-119, limits assumed) (assay: FcRn affinity chromatography).
T1 construct: also called the receptor

| retention time [min] | Molecule | binding result |
| --- | --- | --- |
| 46.2 | anti-HER2 antibody with symmetric mutation K290H | – |
| 45.6 | anti-HER2 antibody with symmetric mutation E258H | – |
| 46.3 | anti-HER2 antibody, wild-type | – |
| 46.3 | anti-HER2 antibody with symmetric mutation K317H | – |
| 45.5 | anti-HER2 antibody with symmetric mutation L309H | – |
| 45.2 | anti-HER2 antibody with symmetric mutation K288E | – |
| 41.4 | anti-HER2 antibody with symmetric mutation R255D | – |

Second part, the molecule before the results:

| Molecule | retention time [min] | binding result |
| --- | --- | --- |
| anti-HER2 antibody with symmetric mutation N434H | 52 | – |
| anti-HER2 antibody with symmetric mutation E430H | 46.4 | – |
| anti-HER2 antibody with symmetric mutation T256H | 46 | – |
| anti-HER2 antibody with symmetric mutation D98E | 46.2 | – |
| anti-HER2 antibody with symmetric mutation Q311H | 46.3 | – |
| IgG1 Fc-region with L234A/L235A/P329G and H310A/H433A/Y436A (other, Symmetric mutations in both Fc chains; also called HHY-AAA) DKTHTCPPCPAPEAAGGPSVFLFPPKPKDTLMISRTPEVTCVVVDVSHEDPEVKFNWYVDGVEVHNAKTKPREEQYNSTYRVVSVLTVLAQDWLNGKEYKCKVSNKALGAPIEKTISKAKGQPREPQVYTLPPSRDELTKNQVSLTCLVKGFYPSDIAVEWESNGQPENNYKTTPPVLDSDGSFFLYSKLTVDKSRWQQGNVFSCSVMHEALANHATQKSLSLSPGK | – | no binding (tested: retention time below 3 minutes) |
| IgG1 Fc-region with L234A/L235A/P329G and I253A/H310A (other, Symmetric mutations in both Fc chains) DKTHTCPPCPAPEAAGGPSVFLFPPKPKDTLMASRTPEVTCVVVDVSHEDPEVKFNWYVDGVEVHNAKTKPREEQYNSTYRVVSVLTVLAQDWLNGKEYKCKVSNKALGAPIEKTISKAKGQPREPQVYTLPPSRDELTKNQVSLTCLVKGFYPSDIAVEWESNGQPENNYKTTPPVLDSDGSFFLYSKLTVDKSRWQQGNVFSCSVMHEALHNHYTQKSLSLSPGK | – | no binding (tested: retention time below 3 minutes) |
| IgG1 Fc-region with L234A/L235A/P329G and H310A/H435A (other, Symmetric mutations in both Fc chains) DKTHTCPPCPAPEAAGGPSVFLFPPKPKDTLMISRTPEVTCVVVDVSHEDPEVKFNWYVDGVEVHNAKTKPREEQYNSTYRVVSVLTVLAQDWLNGKEYKCKVSNKALGAPIEKTISKAKGQPREPQVYTLPPSRDELTKNQVSLTCLVKGFYPSDIAVEWESNGQPENNYKTTPPVLDSDGSFFLYSKLTVDKSRWQQGNVFSCSVMHEALHNAYTQKSLSLSPGK | – | no binding (tested: retention time below 3 minutes) |
| IgG1 Fc-region with L234A/L235A/P329G and H310A/Y436A (other, Symmetric mutations in both Fc chains) DKTHTCPPCPAPEAAGGPSVFLFPPKPKDTLMISRTPEVTCVVVDVSHEDPEVKFNWYVDGVEVHNAKTKPREEQYNSTYRVVSVLTVLAQDWLNGKEYKCKVSNKALGAPIEKTISKAKGQPREPQVYTLPPSRDELTKNQVSLTCLVKGFYPSDIAVEWESNGQPENNYKTTPPVLDSDGSFFLYSKLTVDKSRWQQGNVFSCSVMHEALHNHATQKSLSLSPGK | – | no binding (tested: retention time below 3 minutes) |
| IgG1 Fc-region with L234A/L235A/P329G and I253A/H435A (other, Symmetric mutations in both Fc chains) DKTHTCPPCPAPEAAGGPSVFLFPPKPKDTLMASRTPEVTCVVVDVSHEDPEVKFNWYVDGVEVHNAKTKPREEQYNSTYRVVSVLTVLHQDWLNGKEYKCKVSNKALGAPIEKTISKAKGQPREPQVYTLPPSRDELTKNQVSLTCLVKGFYPSDIAVEWESNGQPENNYKTTPPVLDSDGSFFLYSKLTVDKSRWQQGNVFSCSVMHEALHNAYTQKSLSLSPGK | – | no binding (tested: retention time below 3 minutes) |
| IgG1 Fc-region with L234A/L235A/P329G and I253A/H310A/H435A (other, Symmetric mutations in both Fc chains; also called IHH-AAA) DKTHTCPPCPAPEAAGGPSVFLFPPKPKDTLMASRTPEVTCVVVDVSHEDPEVKFNWYVDGVEVHNAKTKPREEQYNSTYRVVSVLTVLAQDWLNGKEYKCKVSNKALGAPIEKTISKAKGQPREPQVYTLPPSRDELTKNQVSLTCLVKGFYPSDIAVEWESNGQPENNYKTTPPVLDSDGSFFLYSKLTVDKSRWQQGNVFSCSVMHEALHNAYTQKSLSLSPGK | – | no binding (tested: retention time below 3 minutes) |
